Measured values reported in paper PMC4036204, “The DDN Catalytic Motif Is Required for Metnase Functions in Non-homologous End Joining (NHEJ) Repair and Replication Restart*”.
Where a chain is given by its changes, count along the chain named.

Legend:
Test in all cases: fluorescence polarization; FP: 50 mM HEPES pH 7.0, 150 mM NaCl, 10 nM probe, temperature not stated; EMSA: 50 mM HEPES-KOH pH 7.8, 50 mM NaCl, 0.2 ug poly(dI:dC), 0.2 ug/ul BSA, room temperature 15 min
[1] = target: T1, Metnase transposase domain N610E (UniProt Q53H47 342-684, N623E); details: protein: recombinant; tags: His6-SUMO cleaved by Ulp1; label: 5' rhodamine; single strand
T1 sequence: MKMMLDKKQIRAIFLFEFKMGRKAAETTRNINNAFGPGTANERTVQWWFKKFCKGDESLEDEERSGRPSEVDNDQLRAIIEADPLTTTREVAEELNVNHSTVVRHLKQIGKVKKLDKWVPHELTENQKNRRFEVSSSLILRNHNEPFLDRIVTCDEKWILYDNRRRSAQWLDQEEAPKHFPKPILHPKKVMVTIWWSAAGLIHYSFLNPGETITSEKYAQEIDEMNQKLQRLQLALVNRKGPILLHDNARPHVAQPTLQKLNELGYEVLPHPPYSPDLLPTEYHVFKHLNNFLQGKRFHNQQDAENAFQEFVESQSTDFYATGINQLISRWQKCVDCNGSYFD

[2] = target: T2, Metnase DNA-binding domain WT (UniProt Q53H47 342-453); details: protein: recombinant, tags: His6-SUMO cleaved by Ulp1
T2 sequence: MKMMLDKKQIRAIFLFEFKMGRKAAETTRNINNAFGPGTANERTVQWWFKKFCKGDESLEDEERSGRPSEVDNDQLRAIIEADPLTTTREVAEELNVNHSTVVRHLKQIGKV

[3] = target: T3, Metnase transposase domain N610D (UniProt Q53H47 342-684, N623D); details: protein: recombinant; tags: His6-SUMO cleaved by Ulp1; label: 5' rhodamine; single strand
T3 sequence: T1 sequence with E282D

Mos1 transposase WT = target: T4, Mos1 transposase WT (UniProt Q7JQ07 1-345); details: protein: recombinant; tags: His6-SUMO cleaved by Ulp1; label: 5' rhodamine; single strand
T4 sequence: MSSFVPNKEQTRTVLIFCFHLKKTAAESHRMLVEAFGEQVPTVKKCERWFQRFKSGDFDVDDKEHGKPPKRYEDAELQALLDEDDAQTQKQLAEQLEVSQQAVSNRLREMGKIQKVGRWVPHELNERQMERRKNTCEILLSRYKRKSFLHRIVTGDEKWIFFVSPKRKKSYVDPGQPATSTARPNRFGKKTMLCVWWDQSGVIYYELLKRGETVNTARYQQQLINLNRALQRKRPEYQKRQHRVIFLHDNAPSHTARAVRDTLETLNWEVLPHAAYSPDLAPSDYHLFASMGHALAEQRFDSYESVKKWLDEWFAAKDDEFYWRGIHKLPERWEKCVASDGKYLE

[4] = target: T5, Metnase transposase domain WT (UniProt Q53H47 342-684); details: protein: recombinant, tags: His6-SUMO cleaved by Ulp1
T5 sequence: T1 sequence with E282N

Mos1 transposase D284N = target: T6, Mos1 transposase D284N (UniProt Q7JQ07 1-345, D284N); details: protein: recombinant; tags: His6-SUMO cleaved by Ulp1; label: 5' rhodamine; single strand
T6 sequence: T4 sequence with D284N

[5] = target: T7, Metnase catalytic domain WT (UniProt Q53H47 446-684); details: protein: recombinant, tags: N-terminal His tag removed by thrombin
T7 sequence: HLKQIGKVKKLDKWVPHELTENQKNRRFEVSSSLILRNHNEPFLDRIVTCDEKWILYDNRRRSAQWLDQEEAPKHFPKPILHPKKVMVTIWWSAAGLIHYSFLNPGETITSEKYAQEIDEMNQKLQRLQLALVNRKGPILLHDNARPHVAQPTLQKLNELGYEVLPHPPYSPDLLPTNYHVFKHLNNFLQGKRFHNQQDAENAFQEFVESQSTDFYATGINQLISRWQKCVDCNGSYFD

[6] = label: 5' rhodamine, single strand
[7] = label: 5' rhodamine on strand 1, blunt

AACCGCAATTACTTTTGCACCAACC (ssDNA, 5' C6-amino linker) [25-nt TIR ssDNA]
Kd [1]: 3200 ± 400 nM
binding result [2, 6]: no binding
Kd [3]: 3300 ± 1100 nM
Kd (Mos1 transposase WT): 33 ± 9 nM
Kd [4, 6]: 277 ± 26 nM
Kd (Mos1 transposase D284N): 33 ± 12 nM
Kd [5, 6]: 295 ± 47 nM

B1: 28-bp blunt TIR dsDNA (dsDNA)
DNA 1: AACCGCAATTACTTTTGCACCAACCTAA
DNA 2: TTAGGTTGGTGCAAAAGTAATTGCGGTT
modifications: 5' C6-amino linker on strand 1
Kd [2, 7]: 3.2 ± 0.9 nM
Kd ([4]; chain copies: 2, label: 5' rhodamine on strand 1, blunt): 7.9 ± 1.9 nM
Kd [5, 7]: 4700 ± 800 nM

B2: 25/31-mer TIR partial duplex (dsDNA)
DNA 1: AACCGCAATTACTTTTGCACCAACC
DNA 2: TCAGTAGGTTGGTGCAAAAGTAATTGCGGTT
modifications: 5' C6-amino linker on strand 1
Kd ([4]; chain copies: 2, label: 5' rhodamine on strand 1, 5' overhang 6 nt on strand 2): 11.9 ± 2.5 nM
